From the DeepSol protein solubility set

Assay: soluble on expression in E. coli; label from the status in PepcDB or PDB records

Sequence | soluble on expression in E. coli
MLSVGRGIADITGEAADCGMLGYGKSDQRTAGIHQRLRSRAFVFRDDSQDGDARLLLIVAELPLPMQNVNEEVLRRLADLYGDTYSEQNTLITATHTHAGPGGYCGYLLYNLTTSGFRPATFAAIVDGIVESVEHAHADVAPAEVSLSHGELYGASINRSPSAFDRNPPADKAFFPKRVDPHTTLVRIDRGEATVGVIHFFATHGTSMTNRNHLISGDNKGFAAYHWERTVGGADYLAGQPDFIAAFAQTNPGDMSPNVDGPLSPEAPPDREFDNTRRTGLCQFEDAFTQLSGATPIGAGIDARFTYVDLGSVLVRGEYTPDGEERRTGRPMFGAGAMAGTDEGPGFHGFRQGRNPFWDRLSRAMYRLARPTAAAQAPKGIVMPARLPNRIHPFVQEIVPVQLVRIGRLYLIGIPGEPTIVAGLRLRRMVASIVGADLADVLCVGYTNAYIHYVTTPEEYLEQRYEGGSTLFGRWELCALMQTVAELAEAMRDGRPVTLGRRPRPTRELSWVRGAPADAGSFGAVIAEPSATYRPGQAVEAVFVSALPNNDLRRGGTYLEVVRREGASWVRIADDGDWATSFRWQRQGRAGSHVSIRWDVPGDTTPGQYRIVHHGTARDRNGMLTAFSATTREFTVV | soluble
MTKSKSKKEDLIPEIGDFTKFFKSRSKFSDQITDVISNVYEWSTSLEPSEDNLPLPFVSKNEEVVWSYLKHQNKQLDGINKKYKGFLSELIGKSHIRVAAKIQDSEGSEDGSDGSDGGSEEELDDDEEELEDEELEDEMIDDEDEADLFNLSESDLKTLDADLKKMEEEEAGEEKEEVEKATEQPKKFKKSIVDDQFFNLDEMHDFLQKTERAGGKKAAQDEEMMFEDEDSWDGKTDYTYEDFFGSRETVAETEKMNGEKKKIEKDKKRKAGDKADLSLDDGKNKKRVRFAMDEEPEEEEVEDEEQEDINDEEEPPEDEPVLLGADLEEPKEESAFAKRQSKMKERIAKLEEENLAPKSWELSGEVAADQRDQNTLLEKHVDFDHGAKRAPEVTEEFTDRLESLIKQRIRDKAWDDVIRVKKVEAKGAKFETEAIENQMNQKTSLAEVYEKEYQNSTGNSADGAAGATKPNEAHEAIKSKMGDLFRLIDALTHFEYKPDQAREEVKVVSNMAALRVEEVGITASTEAQLMAPEEISKKMKAIEKSKDERDATDKARERRQKKAKQRSMLEKFGEERVFGEQKAVKLAKKERKAGKEKGGGVDKIKSSNFFAKLQETVAAEKKDGAVTKKKKKIVKRLKSDKNSAAIKL | not soluble
MAHHHHHHMMDDQSSTSGGPQEGRDADHRQNHGNVLFVGNLPFQTPWQHVKDHFRKAGKVRYTDLIADRMGRPKGSALVTMVTAEGAQRAIRMYNETDFEGRRLIVRLFDDGPRPPIVQRGMMPQYDRQTQQQQPQQQSQRFRGYTGASSGGSNYNNTTNFGRRADYMGRGGYTMEEDLNATSLNDMGDSVPKPRSQQVNEFGRKLFVSNLPFDCTSSALRETFQQVGNVERAEVILGRNGKSRGMGIVVMRTEKETRLAIEEFDGIEMANRAMSVRLDNKTTA | soluble
MSLKTFLESLKFPVQEVNKKSSGEKGPGRPPYWEMVFYWTRKPLVGARSVIAGALLPENVDENLFKAAVRLSSPTPHRENPQIPAEFAKYFEGKKLLDPFAGFGSIPLEGLRLGLDVTAVELLPTTYIFLKAVLEYPKKFGKSLVKDVERWGEWITEQLKNDPEIRELYDDDVAVYIGTWEIRCPHCGRWTPAIGNFWLARVKEGHHHHHH | soluble
MSLNSYVLGFKEIDKTKISMVGGKGANLGELSRVAGILIPEGFCVTTEAYKKIIEKSKEFNELLDELSCLRLEDGEKVYEVSKKIRMVIERISIPKDIVEEIDVYLTRLGEKDAYAVRSSATAEDLPTASFAGQQDTYLNIIGKKSILEHISKCWASLFTDRAVIYRLQNGFDHRKVYISVVIQKMIFPKAAGILFTADPVNSNRKVLSIDASFGLGEALVSGLVNADMYKVLSGKITDKKVSKKKLAIYASKDGGTKAQELEIEKQNKQVLTEEQILQLEHIGRSIEEHFSFPQDIEWCLNQDTFYILQSRPITTLYPIPKANDEENHVYISVGHQQMMTDPLKPLGMSLYELTSFGNRFKAGGRLFFDVTQMLASKDSRKMLLNNMEQHDPLMKDALVTIIERDFIKALPSDNGNQSKSNKGVSAGESENQIENNPTIVSDLINKNQASIEELKENIKTKSGLELIDFIRTDVEELKKILSDPQSSAVFMTAINASHWINEKMRDWLGEKNAADILSQSVPNNITSKMGLELLEIADVIRPYPEIIDYLQHVKDDNFLEEIVKFNGGHEVKNAILSYLSKYGMRCSGEIDITRTRLSEKPITLVPMILNNIKNFETGAANIKFQQGKQKALEKEQELLERLKQLPDGEQKAKETKRMIKLIRNFIGYREYPKYGMVNRYFIYKQALMKEAEKLANIGAIHEKEDIYYLTFEELREVIRTKKVDYSIINKRKNEHKLYEKLIPPRVITSDGEIVEGEYKRENVPEGAIIGLSVSSGVIEGRARVILNMEDANLEAGDILVTSFTDPSWTPLFVSIKGLVTEVGGLMTHGAVIAREYGLPAVIGVENATKLIKDGQQIRVNGTEGYVEILEGHHHHHH | soluble
MGSDKIHHHHHHMTLTANNKKRAVLRVRPGQFVVTPAIEQVAIRALRYLTSGFAIHLRGPAGTGKTTLAMHLANCLDRPIMLIFGDDEFKSSDLIGSESGYTHKKLLDNYIHSVLKVEDEFKQNWVDSRLTLACREGFTLVYDEFNRSRPEVNNVLLSALEEKILTLPPSSNQPEYLHVNPQFRAIFTSNPEEYCGVHSTQDALMDRLVTINMPEPDELTQTEILAQKTALNRADALLVVQLVKAFRSRTGGEKTSGLRSCLMIAKVCAEHNILVAPESSDFREICADVLFNRTNWSASEATTIFLELLNHLNLEEIEEFKNSITSEDTDAIADEDHNAINESGFPTIIDSQFGTLDSEVLEQPGVEDSIPFEREIYLYLQQYKSAALALLQQEFELSRTVATNALNSLEQKGLVSKNNHVYTIEEPNQP | not soluble
AAPFDVTAPQEPVLALVGSDAELTCGFSPNASSEYMELLWFRQTRSTAVLLYRDGQEQEGQQMTEYRGRATLATAGLLDGRATLLIRDVRVSDQGEYRCLFKDNDDFEEAAVYLKVAAVGSDPQISMTVQENGEMELECTSSGWYPEPQVQWRTGNREMLPSTSESKKHNEEGLFTVAVSMMIRDSSIKNMSCCIQNILLGQGKEVEISLPAPFVPRLTPW | not soluble
GPGSMGTMKDKNKCTFRYFEVLPIDHEPEYQNGYVCDICFMEYSEGPFFHCSKSGKDVCLRCGGKMGLTPFTALVSKVMRPTVYWSESESSRAIALCYQIHRDILGCHFIDGANLLISTRDDLPSYFIDSNSCIEKSIVLSRSDIERRFPWAGEVAEVMGVNAVSFHETSACNDQSRLCFLSSFRVEGAFIEFRFSDGFCELVHCENGTIVAIRDSAVLSCFLMGLPVRWGRSLPKAASSVLEWYLKGGQR | not soluble
MNRYITRGIDNNLPIILQQQLWKLVAQRENEQSKELEAIDYFHIFQFNMHNDQLCIKHKQERPEYIKTHKANYSKAINIKKVYIIREDDVDLSYYVMLLPEEYAAALEHHHHHH | soluble
GSHMNPLTQAVPKCQRWEKLQNSRCVCKMPYECGPSLDVCAQDERSKRILPLTVCKMHVLHCQGRNYTLTGRDSCTLPASAEKACGACPLWGKCDAESSKCVCREASECEEEGFSICVEVNGKEQTMSECEAGALRCRGQSISVTSIRPCAAETQ | soluble
STRFLEKRHKKKKATNKERILSYKPIHAIEQENSFRSSRCSNQTVEVSAVEDSRSALVGFFESNEPSESVTLKGKRERQLLASKTLISQLKEENCRLKERLNEVKDQLELKEKIALVQQENNDLEAEVLEWKAKFYESESEKERILASRSRPKDGYEIVQESLAQQPGTTSFYDYKFRQLVHKLTRMNAIHSKHNDKEYHKCDIVNESKDRSITFELFIDEEQEEIEYVPVQLNGVSQKLPSYLQDNISFDVQNAPIFFTKIMHSLFSK | soluble
MENRYSVHPEQVKRFTTEELRSHFLMDSLFTENKLTMYYSHEDRVVIGGAAPGQSELKLDAGDFLKTDFFLERREIGIINVGQPGAVRVGDDEYVLQTKDFLYIGMGNQDVSFSSLNGEKAKFYFVSACAHKSYPTQKAALSELTPDRLGDDAASNVRSLYKVIHQDGIKSCQLMMGITMLDQNNNWNTMPAHVHDRRMEAYLYLDLEKDSKVFHFMGQPDETRHLVVGNEQAVLSPAWSIHSGAGTSNYSFVWAMAGENYTFTDMDLIPMDGLK | not soluble
MGSDKIHHHHHHMTNWLPDPSALASPLHSSLALAIAKAISEGKLPKGTQLPTHRKLAEELGLSVHTVSKAYESLRRQRLIDGQVGRGSYVLDLNTPDDQPFQLSSERGRNFDLSISRPAFSQRHAELFQQVLADLPQGLDPSYYLACRPNVGHDAHRAAGETWLRICGLDVPSERIIMTNGVSHGMSAALSALARPGDTVVSSRITHHLLVSGCSYLGLNLVGIDFDQDGMLPDALDRHCSENNAKVLFLLPSLANTTVEMIPEERRQALVQVARKHNLYIIENDAFGPVAEDRPVPVAALAPERTIYLTTFTKCTVSGLRAGYMAAPEHLLPALTGRIVVFGWMATPLMCEIATRWVLDGTALELALWQRRALAERYEIASQALQGHQWRGHPSALHLWLPLESGWTTSSFVAYARQLKVAVAPDAPFLTPKTPPPNAVRISLGSVQDLSRFKQAMELVGGMLSRPPEGVAPLAF | not soluble
MSLAFGNYPFLTVSEITYTNPINSNIVSEDFDVEIGEATNGTVTSRVGIRVKDITRHIGIFGSTGSGKTNTAILLASQLNAKGVKVIILDWHGEYDQLLKNGFRIYDEKTIVKINPLHLIDLDVEDTVDIIGDVLQLTDPQRFLLYTILLKLKSYRKFSINQLLEVINSIEDTSYWMRDVKYALLRKIFILFTPTASKLFSTVDETSLNDFPDYLTSSTIINLGFISNLKLRKLYSLFLIKLIVESYIREGHHHHHH | soluble
MAHHHHHHVDDDDKPGPALYEENALKGKIDDPNSYVPDAVQEAYKNLDSTSTLTEENFGKPYISAKDLKEIMYDHLPGFGTAFHQLVQVICKIGKDNNLLDTIHAEFQASLADGDSPQCALIQITKRVPIFQDVPPPIIHIRSRGDIPRACQKSLRPAPPSPKIDRGWVCLFKMQDGKTLGLKI | soluble
MNQTLLSSFGTPFERVENALAALREGRGVMVLDDEDRENEGDMIFPAETMTVEQMALTIRHGSGIVCLCITEDRRKQLDLPMMVENNTSAYGTGFTVTIEAAEGVTTGVSAADRITTVRAAIADGAKPSDLNRPGHVFPLRAQAGGVLTRGGHTEATIDLMTLAGFKPAGVLCELTNDDGTMARAPECIEFANKHNMALVTIEDLVAYRQAHERKAS | soluble
MGRVDGLDKFKGLFDALEPKSEGQRELKEALLSDVDLVGVFGPTGTGKSLFSIVYGVSMTAEGRFRRVVLARPVIDVVTGRELTVMTDAQSYRRLAAEYLMDILSGFLGEERVREILSSDSLVLVDPHFLRGRTFDNSVIIVDDSQSMPPEAIVEIITRLGTGSKLIVIGDPVFQRTSEPGLDGASMAREILSNEPTAEVVDLGLKDIVRPGAKRGVKMLMELLMRRRTLNQAEKEVIEAARMHSPDADIITAVDLQDAKRKWGIESDHVPDVLVVVKEGHLGRFIGRGGERIEKIEGETGLRIRAIEHTLDLKEIVRAIHPVSWIHKHVIDFDFAGPQLKIKVSKEHMGPMLGQKGAHIRFLDEIVRKLLGVGVFVEEVEERRGRRRRR | not soluble
MDGIFAGIICNQANRCLTWTSQQLFSEKISGAEGTKLDDEFLDMERKIDVTNKVVAEILSKTTEYLQPNPAYRAKLGMLNTVSKIRGQVKTTGYPQTEGLLGDCMLKYGKELGEDSTFGNALIEVGESMKLMAEVKDSLDINVKQTFIDPLQLLQDKDLKEIGHHLKKLEGRRLDYDYKKKRVGKIPDEEVRQAVEKFEESKELAERSMFNFLENDVEQVSQLAVFIEAALDYHRQSTEILQELQSKLQMRISAASSVPRREYKPRPVKRSSSELNGVSTTSVVKTTGSNIPMDQPCCRGLYDFEPENQGELGFKEGDIITLTNQIDENWYEGMIHGESGFFPINYVEVIVPLPQ | soluble
